Data set [1] has as its target HBeAg used for crystallization: Cp(-10)149, C48A, C107A, G123A (Hepatitis B virus) (UniProt P03147). Description: crystal structure.
The data set “AUC” deals with the molecule itself. Briefly: AUC.

Experimental findings from paper PMC3544974 (Structure (London, England : 1993), 2012) are described below.

In general, stoichiometry N refers to the number of molecules, sites or subunits per partner or assembly.

In data set [1], “HBeAg used for crystallization: Cp(-10)149, C48A, C107A, G123A (from UniProt P03147 1-149) (natural protein)” registered a stoichiometry N of 2.

B1: HBeAg construct Cp(-10)149, C48A, C107A (natural protein)
chain: SKLCLGWLWGMDIDPYKEFGATVELLSFLPSDFFPSVRDLLDTAAALYRDALESPEHASPHHTALRQAILCWGDLMTLATWVGTNLEDPASRDLVVSYVNTNVGLKFRQLLWFHISALTFGRETVLEYLVSFGVWIRTPPAYRPPNAPILSTLPETTVV
In the case of B1, in “AUC”, the “stoichiometry N” value came to 2.
